The supplement of paper PMC9876800

Tested on: peptide library, one residue held at a place counted from the S/T acceptor
Assay: relative phosphorylation of the sub-library (ratio to the mean residue at this position); higher = residue favoured
Conditions: human
Method in brief: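 Purified recombinant kinases (human or orthologue constructs) were incubated in 384-well plates with biotinylated degenerate peptide sub-libraries, each fixing one residue at one position around a central Ser/Thr. Peptides were at 50 μM, with 50 μM ATP spiked with γ-32P-ATP, for 90 min under kinase-specific conditions. Spots on streptavidin membranes were phosphorimaged and quantified by densitometry. Relative sub-library phosphorylation is a ratio to the mean residue at that position.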

Sequence of TLK1, construct: Full length (Q9UKI8 whole entry, looked up): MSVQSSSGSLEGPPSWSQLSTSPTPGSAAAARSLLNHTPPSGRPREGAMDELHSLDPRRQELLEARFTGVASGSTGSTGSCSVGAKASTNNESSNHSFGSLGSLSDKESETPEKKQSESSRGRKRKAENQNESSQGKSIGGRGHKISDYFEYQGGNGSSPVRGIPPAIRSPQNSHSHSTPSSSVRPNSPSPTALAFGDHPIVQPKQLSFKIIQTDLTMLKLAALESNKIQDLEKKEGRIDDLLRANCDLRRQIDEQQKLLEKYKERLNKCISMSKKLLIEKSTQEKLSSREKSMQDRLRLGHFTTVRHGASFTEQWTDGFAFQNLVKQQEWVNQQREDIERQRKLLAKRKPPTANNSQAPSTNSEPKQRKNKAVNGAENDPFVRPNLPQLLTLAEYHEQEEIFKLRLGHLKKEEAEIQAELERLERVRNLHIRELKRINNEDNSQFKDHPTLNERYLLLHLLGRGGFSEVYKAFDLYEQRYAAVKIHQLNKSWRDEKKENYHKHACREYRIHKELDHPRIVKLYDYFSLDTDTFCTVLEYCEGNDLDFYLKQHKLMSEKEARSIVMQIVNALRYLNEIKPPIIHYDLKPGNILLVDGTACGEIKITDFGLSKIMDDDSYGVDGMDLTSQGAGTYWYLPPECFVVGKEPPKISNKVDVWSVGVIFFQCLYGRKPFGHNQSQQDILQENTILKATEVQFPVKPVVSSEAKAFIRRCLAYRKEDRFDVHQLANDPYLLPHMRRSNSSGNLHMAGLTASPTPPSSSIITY
Sequence of NUAK2, construct: Full length (Q9H093 whole entry, looked up): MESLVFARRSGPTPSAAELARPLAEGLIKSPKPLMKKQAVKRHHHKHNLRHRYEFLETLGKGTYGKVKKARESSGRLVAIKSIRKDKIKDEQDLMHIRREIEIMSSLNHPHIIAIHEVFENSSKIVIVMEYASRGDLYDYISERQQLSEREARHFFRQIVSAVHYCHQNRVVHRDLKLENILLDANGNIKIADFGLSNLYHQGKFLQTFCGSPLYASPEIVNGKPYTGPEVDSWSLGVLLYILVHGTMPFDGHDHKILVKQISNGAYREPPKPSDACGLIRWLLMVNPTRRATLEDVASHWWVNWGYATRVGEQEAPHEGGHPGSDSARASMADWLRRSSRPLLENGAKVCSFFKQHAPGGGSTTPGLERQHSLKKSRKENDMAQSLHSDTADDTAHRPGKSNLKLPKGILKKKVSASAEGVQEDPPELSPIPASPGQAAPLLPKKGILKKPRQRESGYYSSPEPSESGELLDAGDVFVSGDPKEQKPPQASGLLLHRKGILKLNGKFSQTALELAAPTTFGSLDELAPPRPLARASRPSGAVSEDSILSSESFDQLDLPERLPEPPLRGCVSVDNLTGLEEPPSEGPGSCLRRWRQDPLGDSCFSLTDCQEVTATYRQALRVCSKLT
Sequence of CAMKK1, construct: aa124-411 (Q8N5S9 124-411, looked up): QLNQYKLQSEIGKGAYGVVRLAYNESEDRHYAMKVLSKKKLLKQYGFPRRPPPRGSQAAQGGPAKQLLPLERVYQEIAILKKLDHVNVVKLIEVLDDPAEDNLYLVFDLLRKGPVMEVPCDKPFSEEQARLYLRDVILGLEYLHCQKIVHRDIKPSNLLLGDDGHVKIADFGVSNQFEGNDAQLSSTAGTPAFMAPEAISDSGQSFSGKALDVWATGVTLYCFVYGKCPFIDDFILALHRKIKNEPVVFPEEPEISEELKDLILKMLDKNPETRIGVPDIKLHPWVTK
Sequence of PBK, construct: Full length (Q96KB5 whole entry, looked up): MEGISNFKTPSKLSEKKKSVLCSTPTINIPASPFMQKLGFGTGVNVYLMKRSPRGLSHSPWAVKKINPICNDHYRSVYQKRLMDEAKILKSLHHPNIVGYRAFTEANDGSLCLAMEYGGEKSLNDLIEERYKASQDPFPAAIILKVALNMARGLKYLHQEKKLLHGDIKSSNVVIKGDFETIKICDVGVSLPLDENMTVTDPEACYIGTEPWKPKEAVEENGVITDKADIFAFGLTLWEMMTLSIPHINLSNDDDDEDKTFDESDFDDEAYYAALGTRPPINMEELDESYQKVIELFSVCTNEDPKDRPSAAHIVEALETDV

TLK1, construct: Full length (from UniProt Q9UKI8)
relative phosphorylation
Conditions	at +1	at +2	at +3	at +4	at -1	at -2	at -3	at -4	at -5
A fixed	0.502	0.943	1.34	0.901	1.02	1.28	1.23	0.986	0.846
D fixed	0.279	1.17	0.745	0.602	2.36	3.12	2.28	1.26	0.993
E fixed	0.353	0.499	0.939	0.52	1.98	3.77	1.44	1.01	0.812
F fixed	0.586	1.4	1.32	1.77	0.517	0.384	0.887	1.51	1.46
G fixed	0.296	0.832	1.13	0.978	0.518	0.875	0.741	0.765	0.693
H fixed	0.917	1.63	1.06	0.957	1.08	0.843	1.14	1.12	0.909
I fixed	1.06	0.658	0.707	0.968	0.717	0.384	0.688	1.24	1.06
K fixed	0.848	0.636	0.646	0.891	1.02	0.512	0.856	0.757	0.952
L fixed	1.49	1.02	0.72	1.02	0.887	0.371	0.679	0.984	0.936
M fixed	2.43	1.6	0.993	0.964	0.751	0.588	0.907	0.896	0.826
N fixed	1.66	0.582	0.636	0.674	1.44	1.35	1.09	0.598	0.609
P fixed	0.217	0.821	1.29	1.38	0.364	0.484	0.856	0.554	0.897
Q fixed	2.14	0.964	0.808	0.722	0.808	1.11	0.775	0.871	0.697
R fixed	1.98	0.664	0.848	0.815	1.27	0.504	1.01	0.795	1.32
V fixed	0.996	0.569	0.809	0.81	0.789	0.497	0.659	1.21	1.16
W fixed	0.669	2.09	1.6	1.77	0.633	0.46	0.836	1.26	1.43
Y fixed	0.577	0.931	1.41	1.26	0.831	0.47	0.932	1.2	1.41
pThr fixed	0.472	0.804	0.79	0.807	0.694	1.76	1.85	1.18	0.601
pTyr fixed	0.518	1.39	1.48	1.08	1.61	2.32	1.4	1.55	1.68

CAMKK1, construct: aa124-411 (from UniProt Q8N5S9)
relative phosphorylation
Conditions	at +1	at +2	at +3	at +4	at -1	at -2	at -3	at -4	at -5
A fixed	0.901	0.973	0.903	0.897	1.05	0.46	1.22	1.1	1.33
D fixed	0.614	0.968	0.958	1.06	1.05	0.445	0.426	1.26	1.18
E fixed	0.644	0.723	0.891	1.05	1.31	0.348	0.461	1.18	1.06
F fixed	0.858	0.802	0.751	0.774	0.629	1.59	1.36	1.02	0.853
G fixed	0.83	0.897	1.14	1.2	0.7	0.458	0.757	1.18	1.32
H fixed	1.31	1.44	1.24	1.12	1.06	0.949	1.12	1.06	1.05
I fixed	1.06	0.725	0.597	0.612	0.645	0.756	1.18	0.675	0.687
K fixed	0.907	0.997	1.27	1.18	1.05	0.463	0.443	0.806	1.18
L fixed	1.12	0.703	0.657	0.76	1.14	2.71	1.29	0.811	0.605
M fixed	1.37	0.901	0.797	0.845	1.27	2.52	2.16	0.82	0.901
N fixed	1.21	1.11	1.2	1.25	1.21	0.811	0.832	1.03	1.04
P fixed	0.157	0.927	1.2	1.29	0.192	0.229	1.05	0.96	1.21
Q fixed	1.33	1.08	1.15	1.14	1.51	0.696	0.872	0.955	0.863
R fixed	1.31	1.57	1.49	1.23	1.75	0.633	0.583	0.791	1.13
V fixed	1.06	0.865	0.702	0.628	0.696	0.594	1.04	0.83	0.786
W fixed	1.01	0.968	0.975	1.13	0.718	0.668	1.03	1.59	0.906
Y fixed	1.31	1.36	1.08	0.848	1.02	2.67	1.18	0.926	0.903
pThr fixed	0.793	0.982	0.885	0.852	0.508	0.624	0.842	0.969	0.9
pTyr fixed	0.907	0.947	1.01	0.925	1.28	0.668	0.726	0.838	0.979

PBK, construct: Full length (from UniProt Q96KB5)
relative phosphorylation
Conditions	at +1	at +2	at +3	at +4	at -1	at -2	at -3	at -4	at -5
A fixed	1.09	1.14	1.03	1.16	1.08	0.848	1	1.04	1.29
D fixed	0.572	0.524	0.634	0.644	0.384	0.427	0.364	0.545	0.576
E fixed	0.364	0.523	0.604	0.608	0.397	0.382	0.37	0.534	0.491
F fixed	0.394	0.849	0.728	0.848	0.814	1.47	1.57	1.07	0.756
G fixed	7.99	1.17	1.69	1.23	1.25	0.76	0.673	1.11	1
H fixed	0.527	1.11	1.2	0.777	1.48	1.06	0.965	1.16	1.41
I fixed	0.386	0.928	0.641	0.976	0.394	1.07	0.587	0.563	0.733
K fixed	0.475	0.775	1.25	1.2	1.37	1.7	1.49	1.23	1.38
L fixed	0.52	1.04	0.907	1.05	0.719	1.07	0.691	0.669	0.723
M fixed	0.93	1.29	0.717	0.98	1.06	1.09	0.845	0.826	0.833
N fixed	0.658	0.913	1.05	0.855	1.09	0.678	0.625	0.991	0.981
P fixed	0.592	1.38	1.69	1.56	1.06	0.878	0.872	1.16	0.914
Q fixed	0.53	0.802	0.954	0.845	1.55	0.685	0.707	0.856	0.77
R fixed	0.535	0.829	1.24	1.05	1.81	1.23	1.98	1.56	1.99
V fixed	0.476	1.37	0.956	0.983	0.517	0.932	0.709	0.642	0.777
W fixed	0.552	1.45	0.816	1.17	0.76	1.57	1.89	2.04	1.55
Y fixed	0.406	0.891	0.9	1.07	1.27	1.14	1.66	1.01	0.812
pThr fixed	0.348	0.618	0.721	0.507	0.317	0.586	0.638	0.803	0.703
pTyr fixed	0.287	0.497	0.574	0.529	0.537	0.508	0.554	0.703	0.576

NUAK2, construct: Full length (from UniProt Q9H093)
relative phosphorylation
Conditions	at +1	at +2	at +3	at +4	at -1	at -2	at -3	at -4	at -5
A fixed	0.911	0.916	0.886	0.691	1.22	1.89	0.724	1.15	0.804
D fixed	0.559	0.547	1.29	0.509	0.855	0.865	0.378	0.554	0.385
E fixed	0.598	0.535	0.635	0.498	0.549	0.503	0.514	0.867	0.435
F fixed	1.71	0.654	1.16	0.862	0.705	0.722	0.461	0.764	1.07
G fixed	1.18	1.14	0.712	0.702	1.42	0.979	0.725	0.862	0.603
H fixed	0.898	1.35	1.61	0.907	0.911	0.659	1.01	0.912	0.605
I fixed	0.691	0.99	0.713	2.05	0.45	0.761	0.452	1	2.27
K fixed	1.08	1.66	1.26	1.32	1.44	0.975	2.61	1.59	1.3
L fixed	0.739	0.839	0.705	1.87	0.84	0.528	0.541	0.858	1.73
M fixed	1.24	0.909	0.828	1.55	1.07	0.83	0.73	1.37	1.02
N fixed	1	1.07	1.44	0.74	1.26	2.66	0.566	0.628	0.435
P fixed	0.896	0.727	0.529	0.679	1.42	0.602	0.88	0.86	0.735
Q fixed	1.16	0.745	0.766	0.624	1.09	1.23	0.739	0.954	0.613
R fixed	1.51	2.48	1.69	1.1	1.65	1.23	5.28	1.8	1.66
V fixed	0.763	0.927	0.614	1.07	0.581	1.26	0.443	1.13	1.74
W fixed	0.868	0.717	1.07	0.931	0.557	0.598	0.471	0.837	0.687
Y fixed	1.19	0.785	1.09	0.896	0.962	0.709	0.474	0.856	0.894
pThr fixed	1.13	1.29	0.495	0.708	0.389	0.808	0.725	0.919	0.653
pTyr fixed	0.814	0.59	0.71	0.605	1.03	0.477	0.531	0.602	0.76
